From the supplement of paper PMC6379048

What was measured:
Test in all cases: EC50 of free RNA motif oligo competing protein binding to immobilised probe
SYMPK = target: T1, SYMPK (UniProt Q92797)
T1 sequence: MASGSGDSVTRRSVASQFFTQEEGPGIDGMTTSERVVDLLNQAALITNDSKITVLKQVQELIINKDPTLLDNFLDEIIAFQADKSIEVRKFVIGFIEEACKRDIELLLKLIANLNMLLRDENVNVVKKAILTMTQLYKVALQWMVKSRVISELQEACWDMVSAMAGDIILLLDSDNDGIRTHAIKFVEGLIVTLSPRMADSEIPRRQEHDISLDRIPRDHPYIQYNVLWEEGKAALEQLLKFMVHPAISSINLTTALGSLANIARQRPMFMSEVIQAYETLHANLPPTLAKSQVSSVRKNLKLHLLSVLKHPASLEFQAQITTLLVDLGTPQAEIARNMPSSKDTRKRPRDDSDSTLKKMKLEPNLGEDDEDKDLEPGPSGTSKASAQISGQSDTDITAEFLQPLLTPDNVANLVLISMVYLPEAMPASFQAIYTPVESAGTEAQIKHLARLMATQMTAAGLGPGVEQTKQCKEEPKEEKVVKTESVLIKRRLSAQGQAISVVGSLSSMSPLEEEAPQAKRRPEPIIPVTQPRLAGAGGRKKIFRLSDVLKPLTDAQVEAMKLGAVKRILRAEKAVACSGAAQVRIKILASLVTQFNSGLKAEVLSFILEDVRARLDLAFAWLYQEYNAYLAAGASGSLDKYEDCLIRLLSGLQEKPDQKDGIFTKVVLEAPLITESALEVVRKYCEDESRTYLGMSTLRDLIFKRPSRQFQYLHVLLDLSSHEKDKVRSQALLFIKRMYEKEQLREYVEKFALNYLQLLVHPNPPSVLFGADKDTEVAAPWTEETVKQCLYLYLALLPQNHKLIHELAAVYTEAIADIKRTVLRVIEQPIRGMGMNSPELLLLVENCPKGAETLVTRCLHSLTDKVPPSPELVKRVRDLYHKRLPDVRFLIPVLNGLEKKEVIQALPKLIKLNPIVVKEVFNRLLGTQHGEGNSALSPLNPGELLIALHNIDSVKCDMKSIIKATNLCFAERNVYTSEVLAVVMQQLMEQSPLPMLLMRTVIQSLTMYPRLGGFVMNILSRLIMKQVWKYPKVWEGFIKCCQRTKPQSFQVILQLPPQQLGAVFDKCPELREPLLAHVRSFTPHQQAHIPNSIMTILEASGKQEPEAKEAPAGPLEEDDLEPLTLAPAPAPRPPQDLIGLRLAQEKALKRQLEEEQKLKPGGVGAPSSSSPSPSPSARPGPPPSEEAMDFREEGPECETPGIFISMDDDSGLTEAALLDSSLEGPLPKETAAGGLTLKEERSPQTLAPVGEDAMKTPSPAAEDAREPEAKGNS
Summary of the method: (§1)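 HEK293-FT lysate (2.5 mg protein/well) was treated with free RNA oligos (0 nM to 30 μM) for 1 h at 4°C, then with the same oligos on NHS-Sepharose beads for 30 min at 4°C. Bound proteins were quantified by label-free LC-MS/MS relative to the control. EC50 came from a four-parameter log-logistic fit, and Kd is EC50 times a protein-dependent depletion factor.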

PIP5K1A = PIP5K1A (UniProt Q99755)
Chain of PIP5K1A (Q99755 whole entry): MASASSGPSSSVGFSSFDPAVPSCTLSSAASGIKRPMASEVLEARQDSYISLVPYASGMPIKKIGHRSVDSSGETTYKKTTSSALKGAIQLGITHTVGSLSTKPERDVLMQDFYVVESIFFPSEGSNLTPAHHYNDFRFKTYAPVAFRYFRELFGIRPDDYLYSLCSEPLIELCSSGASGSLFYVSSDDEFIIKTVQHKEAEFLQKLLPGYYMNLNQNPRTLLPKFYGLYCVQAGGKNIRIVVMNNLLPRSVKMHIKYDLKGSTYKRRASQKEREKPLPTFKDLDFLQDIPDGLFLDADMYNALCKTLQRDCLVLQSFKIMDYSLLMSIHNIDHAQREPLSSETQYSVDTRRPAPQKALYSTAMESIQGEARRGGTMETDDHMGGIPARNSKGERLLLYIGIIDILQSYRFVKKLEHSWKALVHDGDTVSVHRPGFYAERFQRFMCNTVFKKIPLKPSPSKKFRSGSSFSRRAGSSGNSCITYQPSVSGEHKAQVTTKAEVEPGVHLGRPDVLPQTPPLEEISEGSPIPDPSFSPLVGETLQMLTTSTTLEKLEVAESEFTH
Summary of the method: as §1

SF3B3 = target: T2, SF3B3 (UniProt Q15393)
T2 sequence: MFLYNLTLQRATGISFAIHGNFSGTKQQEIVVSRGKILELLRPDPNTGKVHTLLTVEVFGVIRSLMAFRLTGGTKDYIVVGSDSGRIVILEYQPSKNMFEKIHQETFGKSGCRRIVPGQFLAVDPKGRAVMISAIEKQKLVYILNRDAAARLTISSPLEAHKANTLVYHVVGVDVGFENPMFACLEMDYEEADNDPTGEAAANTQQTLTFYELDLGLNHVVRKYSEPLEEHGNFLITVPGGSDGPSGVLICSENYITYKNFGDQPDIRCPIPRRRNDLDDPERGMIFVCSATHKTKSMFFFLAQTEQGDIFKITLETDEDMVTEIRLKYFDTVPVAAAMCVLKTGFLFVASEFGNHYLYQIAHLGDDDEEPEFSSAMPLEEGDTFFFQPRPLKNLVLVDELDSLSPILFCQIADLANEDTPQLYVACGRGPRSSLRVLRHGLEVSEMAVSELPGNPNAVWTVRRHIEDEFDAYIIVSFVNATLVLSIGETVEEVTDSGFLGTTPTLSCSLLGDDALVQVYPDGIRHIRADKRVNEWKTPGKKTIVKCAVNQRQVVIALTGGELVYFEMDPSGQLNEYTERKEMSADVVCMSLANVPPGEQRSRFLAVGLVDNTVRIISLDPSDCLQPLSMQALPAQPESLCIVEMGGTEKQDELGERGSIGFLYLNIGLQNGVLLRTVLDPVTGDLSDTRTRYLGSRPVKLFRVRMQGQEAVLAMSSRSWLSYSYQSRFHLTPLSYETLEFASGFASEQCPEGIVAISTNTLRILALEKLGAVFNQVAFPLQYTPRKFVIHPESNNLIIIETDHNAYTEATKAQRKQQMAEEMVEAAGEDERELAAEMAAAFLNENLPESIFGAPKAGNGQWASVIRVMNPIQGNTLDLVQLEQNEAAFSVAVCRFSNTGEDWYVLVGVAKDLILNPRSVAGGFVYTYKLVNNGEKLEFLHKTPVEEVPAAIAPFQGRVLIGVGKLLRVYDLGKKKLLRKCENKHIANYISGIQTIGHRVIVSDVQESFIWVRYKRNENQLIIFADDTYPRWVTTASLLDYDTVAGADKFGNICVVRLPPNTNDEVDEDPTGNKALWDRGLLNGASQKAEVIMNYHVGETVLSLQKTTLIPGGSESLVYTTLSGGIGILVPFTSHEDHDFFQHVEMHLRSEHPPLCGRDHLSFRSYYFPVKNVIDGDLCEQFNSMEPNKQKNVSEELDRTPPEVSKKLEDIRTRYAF
Summary of the method: as §1

MRPL12 = MRPL12 (UniProt P52815)
Summary of the method: as §1

MRPL22 = MRPL22 (UniProt Q9NWU5)
Summary of the method: as §1

MRPS26 = MRPS26 (UniProt Q9BYN8)
Summary of the method: as §1

AAUAAA showed an EC50 (SYMPK) of 116 nM, an EC50 (PIP5K1A) of 2250 nM and an EC50 (SF3B3) of 4880 nM.
With CUGUCCU the EC50 (MRPL12) was 115 nM and the EC50 (MRPL22) was 98.4 nM.
For UAUUUAU, the EC50 (MRPS26) was 35.1 nM.
